Data: the supplement of paper PMC10724198
± gives the standard deviation of the averaged measurements.

Tested on: Saccharomyces cerevisiae
Assay: protein stability index of tFT-peptide fusion (C-terminal peptide) (PSI (0-1 scale)); higher = more stable (slower turnover)
Details: genetic background: wild type; temperature: 30 C
Description: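 Multiplexed protein stability (MPS) profiling in S. cerevisiae. Random 12-aa peptides (tFT-X12 library) are fused to the C-terminus of a sfGFP-mCherry tandem fluorescent timer, after mCherry and a GGGS linker. Cells are FACS-sorted into 8 mCherry/sfGFP bins and deep-sequenced. The protein stability index (PSI) is the read-weighted bin average, scaled from 0 (unstable) to 1 (stable). Only peptides with >10 reads are reported; cells were grown at 30 °C in SC-His with glucose.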
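Further: PSI is a weighted mean of sequencing reads over stability bins, variants kept only with over 10 reads, mCherry proximal and sfGFP distal, peptide attached via GGGS linker.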

| Sequence | protein stability index |
| --- | --- |
| VPSSVLIPRPLF | 0.72 ± 0.081 |
| VSSTFGQDTSKR | 0.715 ± 0.024 |
| IRPWPLDPPPGR | 0.78 ± 0.08 |
| LRGGWVESCGGW | 0.669 ± 0.027 |
| DGAVRRGVGGLG | 0.699 ± 0.031 |
| PPSLPPLFLRAP | 0.667 ± 0.0091 |
| TGEFILLFSWFV | 0.584 ± 0.0024 |
| SLAPSARLYPYH | 0.768 ± 0.03 |
| GVIGPFSHDGCA | 0.662 ± 0.021 |
| FAQRRGPAALNI | 0.70492 ± 0.00052 |
| GTTNRMVTQKGF | 0.712 ± 0.024 |
| FLLYGWTRPSCQ | 0.735 ± 0.062 |
| PPLLHPLPPPLP | 0.659 ± 0.014 |
| PGRLTTERLSFQ | 0.7 ± 0.043 |
| LLLLFWSGSCGC | 0.648 ± 0.013 |
| PTLPGEQPRSWQ | 0.6701 ± 0.0049 |
| GPSTPPPRAPGT | 0.7045 ± 0.0031 |
| VWLGEYGVGCSV | 0.655 ± 0.048 |
| RRGTRGGGGRER | 0.638 ± 0.019 |
| LPPLRVIANIRG | 0.659 ± 0.019 |
| NVLIASGIEVKK | 0.629 ± 0.0099 |
| RFGRGAVGGLGG | 0.668 ± 0.02 |
| GSWLGVGDRLVC | 0.717 ± 0.17 |
| PPSPPPPPASPP | 0.6805 ± 0.0015 |
| RCGGGGSVSFWW | 0.693 ± 0.049 |

| Sequence | protein stability index |
| --- | --- |
| GLSFSAALFSAF | 0.673 ± 0.05 |
| WNGIDQSMSGRR | 0.694 ± 0.099 |
| CPCPSHLLLRSP | 0.659 ± 0.0084 |
| RPPPALWPPPSP | 0.694 ± 0.027 |
| VLLRRRASSISG | 0.671 ± 0.043 |
| KGRKVVLETQLQ | 0.7 ± 0.018 |
| QWIINVSRSIRK | 0.654 ± 0.031 |
| FVLPLAPAGIAS | 0.5817 ± 0.0038 |
| LPPPPRPLPRSL | 0.732 ± 0.018 |
| PRDSLMRLDCRL | 0.691 ± 0.022 |
| SLPAPPPPPPPH | 0.727 ± 0.034 |
| KPLPSHYPGRTP | 0.658 ± 0.016 |
| DAWSFHNGATGA | 0.676 ± 0.029 |
| PRLLSTYAGSKW | 0.723 ± 0.012 |
| IGKLDYVCWRVL | 0.602 ± 0.029 |
| SPPPAPVPAPPR | 0.678 ± 0.048 |
| SPRLHFPPRHPC | 0.717 ± 0.015 |
| RKSCKRNERIRK | 0.669 ± 0.035 |
| RVPDNYLKWSYI | 0.719 ± 0.051 |
| RGRLRFGNTTGI | 0.691 ± 0.035 |
| VTLRLCGQSVVV | 0.585 ± 0.0085 |
| GTNARGGPINIG | 0.675 ± 0.0065 |
| RYFPNRGSGLTY | 0.786 ± 0.037 |
| HPSGLFSFVCLS | 0.567 ± 0.0057 |
| SSVNYPSFPPLA | 0.706 ± 0.03 |

| Sequence | protein stability index |
| --- | --- |
| LKKKSHRIKRSI | 0.58471 ± 0.00035 |
| YINVEPRITKNT | 0.709 ± 0.0085 |
| VIISDPNKDTRL | 0.645 ± 0.066 |
| GTDGGRSSLGCR | 0.718 ± 0.026 |
| GRGLRWSWGCGG | 0.693 ± 0.064 |
| RGFPPPPLLSSR | 0.74 ± 0.059 |
| GLNLDLSGRLAF | 0.703 ± 0.032 |
| MVMEGLRTLSCQ | 0.6589 ± 0.0061 |
| HSGPPSPFPLNV | 0.718 ± 0.034 |
| FLIFSLSFCVLS | 0.6713 ± 0.0031 |
| RHAFGSSHVRFF | 0.679 ± 0.024 |
| LFVCVFRPWLGG | 0.766 ± 0.09 |
| GSRSKLPICGCL | 0.809 ± 0.18 |
| PLRLPPPRSPPL | 0.689 ± 0.032 |
| ILCPGLYQFLVF | 0.529 ± 0.038 |
| GYVHPSWLWANT | 0.732 ± 0.033 |
| ASSVVGLEERVR | 0.728 ± 0.049 |
| GFRLCVFGSSLF | 0.6956 ± 0.0025 |
| LSTSINTIIPGP | 0.71 ± 0.14 |
| PTPLLTQHPRRP | 0.72 ± 0.043 |
| FLGLFHTVKKWQ | 0.684 ± 0.06 |
| LSQASPGSPRPA | 0.698 ± 0.011 |
| PVPCNYSPVIHL | 0.688 ± 0.029 |
| VGIPKEADKGGF | 0.704 ± 0.035 |
| TPKETGNNNMPN | 0.677 ± 0.09 |

| Sequence | protein stability index |
| --- | --- |
| TRPCFSGFNSPF | 0.6545 ± 0.0019 |
| WGGLSRCAGVWL | 0.632 ± 0.034 |
| VCWFMWSSVYGE | 0.527 ± 0.051 |
| SPLETLLCTPSI | 0.675 ± 0.019 |
| SLISRAFYSFSP | 0.699 ± 0.04 |
| QEWAQYTHSEQP | 0.735 ± 0.026 |
| VEDGQGEYRRWV | 0.606 ± 0.049 |
| KQNRKEKVQRNR | 0.709 ± 0.054 |
| CSAHVPAPHSYR | 0.704 ± 0.061 |
| EQVTCGGIRVGQ | 0.656 ± 0.086 |
| PTGQEFYRGGTR | 0.6927 ± 0.0047 |
| YPSDLRPPSSPI | 0.7512 ± 0.0041 |
| WWSFVGACDGVG | 0.549 ± 0.012 |
| ARPVPRAPSRYA | 0.647 ± 0.047 |
| RRRSLLLTYSYV | 0.541 ± 0.055 |
| GRFKLCWWCCGV | 0.724 ± 0.035 |
| WSESVKEASFTS | 0.756 ± 0.028 |
| ERGSRKKKDRRR | 0.639 ± 0.01 |
| YEKWIKKCNKEE | 0.689 ± 0.068 |
| VILTAISPAFSV | 0.647 ± 0.013 |
| AEMGQDGADAGQ | 0.676 ± 0.01 |
| LGVCVGFRLLWV | 0.579 ± 0.026 |
| CDFVFEFSCVQV | 0.577 ± 0.025 |
